Laboratory results taken from patent US20240245811A1, “ALPHA RA[…] ANALOGUE AND USE THEREOF IN METHODS OF TREATING CCKB RECEPTOR POSITIVE DISEASES” (Paul Scherrer Institut, priority 2020, published 2024).
Where two headings read alike, the source gives them in different places.

What was measured:
[1] = test system: A431/CCKBR tumors; assay: SPECT/CT imaging with 111In-PP-F11N after 225Ac-PP-F11N treatment; type: in vivo, nude mice; details: 13 MBq i.v., 2 h after injection, tumor-free mice after 45 or 60 kBq 225Ac-PP-F11N
Source text: Image reconstruction and processing is accomplished by using VivoQuant 3.0 Patch1 software.

[2] = test system: A431/CCKBR cells; assay: Cell proliferation assay (CellTiter 96 AQueous); type: cell-based, human; details: 24 h
Description: Human epidermoid carcinoma A431 stable cell line that overexpress CCKBR, generated as previously described (Aloj et al., J Nucl Med 2004, 45(3), 485-94) can be cultured in DMEM, supplemented with 10% FBS (Bio Concept, Switzerland), 2 mM glutamine and antibiotics (0.1 mg/mL streptomycin, 100 IU penicillin) at 37° C. in a humidified incubator containing 5% CO2.
For the cell proliferation assay, 4×10^3 cells per well are seeded on the 96-well plates.
Cell proliferation can be analyzed using CellTiter 96 AQueous Non-Radioactive Cell Proliferation Kit (Promega AG, Switzerland) according to the manufacturer's instruction. Absorbance of formazan product is measured at 570 nm with a reference of 650 nm using a MicroPlate Reader (PerkinElmer, Switzerland). The absorbance of the control (untreated) cells is set as 100% cell viability. […] The assay is performed in triplicate.

[3] = test system: A431/CCKBR tumors; assay: Biodistribution study in A431/CCKBR xenografted nude mice; type: in vivo
Description: (§1) 1, 4, 24, 48 h and 7 days after administration of radiolabeled peptides, mice are sacrificed and the post mortem dissected tumors and organs are weighted and their activity is measured on a gamma counter (Packard Cobra II Auto Gamma, PerkinElmer, Switzerland).

[4] = as above; type: in vivo; details: female, CD-1 nude, mouse, iv, total radioactivity; for tissue uptake at 4 h: 4 h post injection; for tissue uptake at 24 h: 24 h post injection; for tissue uptake at 48 h: 48 h post injection; for tissue uptake at 168 h: 7 days post injection
Description: as §1

[5] = Histological (HE) analysis of kidney and stomach after treatment; type: in vivo, nude mice; details: 60 and 120 kBq groups, organs dissected between day 34 and 49
[6] = test system: A431/CCKBR tumors; assay: Therapy study in A431/CCKBR tumor-bearing nude mice; type: in vivo; details: 30-120 kBq, all groups
Description: For the therapy study, nude mice are subcutaneously injected with 5×10^6 A431/CCKBR cells on the left shoulder. […] The control group is injected with 100 μL PBS. Tumor diameters and mice weight are recorded daily during the working days. Tumor volume is calculated by using the formula formula V=(W^2×L)/2 (Faustino-Rocha et al. Lab Anim. 2013, 42(6), 217-224). Nude mice are sacrificed when the tumor volume exceeded 1.5 cm^3. The data are obtained from two sets of experiments including control, 30, 45, 60 kBq and control, 60, 90, 120 kBq treatment groups.
GraphPad Prism 7.00 for Windows was used for all statistical analysis. […] Log-rank (Mantel-Cox) test and Gehan-Breslow-Wilcoxon test are performed to compare different survival curves of treatment groups with the control group. Endpoints are defined as death in survival curves. Values of P<0.05 are considered statistically significant. The results are reported as mean±standard deviation of at least three independent replicates.

[7] = biological target: T1, CCKBR (Homo sapiens, UniProt P32239); details: cited from earlier work
T1 sequence (P32239 1-447): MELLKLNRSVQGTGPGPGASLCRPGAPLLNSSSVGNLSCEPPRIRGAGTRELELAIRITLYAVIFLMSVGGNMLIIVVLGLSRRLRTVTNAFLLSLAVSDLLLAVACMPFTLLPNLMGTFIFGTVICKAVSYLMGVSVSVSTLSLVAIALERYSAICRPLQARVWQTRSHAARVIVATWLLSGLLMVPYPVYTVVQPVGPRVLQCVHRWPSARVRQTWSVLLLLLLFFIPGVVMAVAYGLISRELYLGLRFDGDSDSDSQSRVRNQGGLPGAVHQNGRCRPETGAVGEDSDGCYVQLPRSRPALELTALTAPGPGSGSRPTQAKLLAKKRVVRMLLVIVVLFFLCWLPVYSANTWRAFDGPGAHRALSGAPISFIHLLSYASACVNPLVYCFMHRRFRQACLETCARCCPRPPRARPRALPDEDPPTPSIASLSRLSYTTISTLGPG

[8] = 38 kBq, stomach, read-out: activity in stomach
[9] = tumor (A431/CCKBR xenograft), 38 kBq, tumor, read-out: tumor uptake

## CCCC[C@H](NC(=O)[C@H](Cc1c[nH]c2ccccc12)NC(=O)CNC(=O)[C@H](Cc1ccc(O)cc1)NC(=O)[C@H](C)NC(=O)[C@@H](CCC(=O)O)NC(=O)[C@@H](CCC(=O)O)NC(=O)[C@@H](CCC(=O)O)NC(=O)[C@@H](CCC(=O)O)NC(=O)[C@@H](CCC(=O)O)NC(=O)[C@@H](CCC(=O)O)NC(=O)CN1CCN(CC(=O)O)CCN(CC(=O)O)CCN(CC(=O)O)CC1)C(=O)N[C@@H](CC(=O)O)C(=O)N[C@@H](Cc1ccccc1)C(N)=O [^111In-PP-F11N, metal not drawn]
[1]
  location of radioactive signals on SPECT/CT: only detected in the excretion organs including kidneys and bladder

## CCCC[C@H](NC(=O)[C@H](Cc1c[nH]c2ccccc12)NC(=O)CNC(=O)[C@H](Cc1ccc(O)cc1)NC(=O)[C@H](C)NC(=O)[C@@H](CCC(=O)O)NC(=O)[C@@H](CCC(=O)O)NC(=O)[C@@H](CCC(=O)O)NC(=O)[C@@H](CCC(=O)O)NC(=O)[C@@H](CCC(=O)O)NC(=O)[C@@H](CCC(=O)O)NC(=O)CN1CCN(CC(=O)O)CCN(CC(=O)O)CCN(CC(=O)O)CC1)C(=O)N[C@@H](CC(=O)O)C(=O)N[C@@H](Cc1ccccc1)C(N)=O [^225Ac-PP-F11N, metal not drawn]
[2]
  activity level at maximum cytotoxic effect (0% of cell viability): 100 kBq/mL
[3]; at analyzed time points
  tumor-to-kidney and tumor-to-stomach ratios: excellent
[3]; biodistribution study, 38 kBq
  body or organ weights, general health or anatomy: no significant differences in body or organ weights, general health or anatomy
[3]; kidney, 1 week post injection
  activity level in the kidney: 1.2%
[3]; kidney, 48 h post injection
  activity level in the kidney: 3.8%
[3]; kidney, within the first four hours
  decrease in accumulation in the kidney: 50%
[4]; 38 kBq, kidney, read-out: accumulation in the kidney
  tissue uptake at 4 h: 4.2 %ID/g
[4]; 38 kBq, kidney, start of the first four hours (1 h post injection), read-out: accumulation in the kidney
  tissue uptake at 1 h: 8.1 %ID/g
[4]; 38 kBq, liver and bone, all analyzed time points, read-out: non-specific uptake in the liver and bone
  tissue uptake: < 2 %ID/g
[4]; 38 kBq, stomach, 1 h post injection, read-out: activity in stomach
  tissue uptake at 1 h: 1.5 %ID/g
[4]; [8]
  tissue uptake at 4 h: 1.3 %ID/g
  tissue uptake at 24 h: 1.2 %ID/g
  tissue uptake at 48 h: 0.8 %ID/g
  tissue uptake at 168 h: 0.3 %ID/g
[4]; [9]
  tissue uptake at 4 h: 11.2 %ID/g
  tissue uptake at 24 h: 7.2 %ID/g
  tissue uptake at 48 h: 5.7 %ID/g
  tissue uptake at 168 h: 4.5 %ID/g
[4]; tumor (A431/CCKBR xenograft), tumor, 1 h post injection, 38 kBq i.v., read-out: tumor uptake
  tissue uptake at 1 h: 13 %ID/g
[5]
  HE stains of kidney and stomach versus control: no signs of acute radiation toxicity
[6]
  body weight and cytotoxicity symptoms during the treatment: no body weight losses or other cytotoxicity symptoms

## CCCC[C@H](NC(=O)[C@H](Cc1c[nH]c2ccccc12)NC(=O)CNC(=O)[C@H](Cc1ccc(O)cc1)NC(=O)[C@H](C)NC(=O)[C@@H](CCC(=O)O)NC(=O)[C@@H](CCC(=O)O)NC(=O)[C@@H](CCC(=O)O)NC(=O)[C@@H](CCC(=O)O)NC(=O)[C@@H](CCC(=O)O)NC(=O)[C@@H](CCC(=O)O)NC(=O)CN1CCN(CC(=O)O)CCN(CC(=O)O)CCN(CC(=O)O)CC1)C(=O)N[C@@H](CC(=O)O)C(=O)N[C@@H](Cc1ccccc1)C(N)=O [metal not drawn]
[7]; WO 2015/067473 A1
  tumor uptake and kidney accumulation: good tumor uptake as well as low accumulation in the kidneys
[7]; recent studies (Sauter 2019, Rottenburger 2020)
  accumulation in healthy tissues: can accumulate in healthy tissues (i.e. in the stomach)
